Measurements as given in patent US20250288675A1 (published 2025).

Experiments:
[1] = target: T1, MAGE-A1 peptide on HLA-C*07:02 (human); experiment: killing
T1 peptide: VRFFFPSL

[2] = target: T2, MAGE-A1 peptide on HLA-A*02:01 (human); experiment: killing
T2 peptide: KVLEYVIKV

[3] = target: T3, PRAME peptide on HLA-A*02:01 (human); experiment: activation reporter or marker
T3 peptide: SLLQHLIGL
Description: (§1) Reporter HEK293T cells expressing exclusively HLA-A*02:01 and expressing a granzyme B-activated infrared fluorescent protein (IFP) were further engineered to express either MAGE-A1 or PRAME. The MAGE-A1 expressing cells were GFP-labeled, and the PRAME-positive cells were labeled with both GFP and CellTrace™ Violet to enable tracking in downstream flow cytometry readouts. When a TCR-T cell recognizes a target cell, it secretes cytotoxic granules into the target cell, triggering the target cell to become fluorescent (IFP-positive). The two target cells (i.e., PRAME- or MAGE-A1 positive) were mixed at a balanced ratio and co-cultured with MAGE-A1 TCR-T cells, PRAME TCR-T cells, or a multiplex product combining the two TCR-T cells. PRAME TCR-T cells and MAGE-A1 TCR-T cells were engineered from T cells from the same donor. The TCR-T cells corresponded to pan T cells engineered by lentivirus transduction using a delivery vector employing MGTM modification and co-delivering CD8α and CD8β co-receptor as described above (such as a Table 1). Donor-matched non-engineered T cells (NTC) were also included as a control. The experiment then measured the proportion of each subset of target (GFP-positive, MAGE-A1 target; GFP/CTV-positive, PRAME target) getting recognized and targeted by TCR-T cells as measured by the proportion of GFP or GFP/CTV becoming IFP-positive. […]

[4] = target: T4, HPV16 E7 peptide on HLA-A*02:01 (human); experiment: killing
T4 peptide: YMLDLQPET

[5] = target: T3, PRAME peptide on HLA-A*02:01; experiment: killing
[6] = target: T2, MAGE-A1 peptide on HLA-A*02:01; experiment: activation reporter or marker
Description: as §1

[7] = target: T5, MAGE-C2 peptide on HLA-B*07:02 (human); experiment: killing
T5 peptide: RAREFMELL

B1: MAGEA1-278-1479 (TCR, V domains shown)
Valpha: EDQVTQSPEALRLQEGESSSLNCSYTVSGLRGLFWYRQDPGKGPEFLFTLYSAGEEKEKERLKATLTKKESFLHITAPKPEDSATYLCAVSYGQNFVFGPGTRLSVLP
Vbeta: EAGVTQSPTHLIKTRGQQATLRCSPISGHTSVYWYQQALGLGLQFLLWYDEGEERNRGNFPPRFSGRQFPNYSSELNVNALELEDSALYLCASSLGQLNTEAFFGQGTRLTVV
[1]
  binding result: no recognition
[2]
  binding result: recognises
[3]
  binding result: no recognition

B2: E7-11-28 (TCR, V domains shown)
Valpha: GQQVMQIPQYQHVQEGEDFTTYCNSSTTLSNIQWYKQRPGGHPVFLIQLVKSGEVKKQKRLTFQFGEAKKNSSLHITATQTTDVGTYFCAGIGSSNTGKLIFGQGTTLQVKP
Vbeta: EPEVTQTPSHQVTQMGQEVILRCVPISNHLYFYWYRQILGQKVEFLVSFYNNEISEKSEIFDDQFSVERPDGSNFTLKIRSTKLEDSAMYFCAITGRVSYEQYFGPGTRLTVT
[4]
  binding result: recognises

B3: PRAME-425-366 (TCR, V domains shown)
Valpha: AQTVTQSQPEMSVQEAETVTLSCTYDTSESDYYLFWYKQPPSRQMILVIRQEAYKQQNATENRFSVNFQKAAKSFSLKISDSQLGDAAMYFCAYRKTSYDKVIFGPGTSLSVIP
Vbeta: AAGVIQSPRHLIKEKRETATLKCYPIPRHDTVYWYQQGPGQDPQFLISFYEKMQSDKGSIPDRFSAQQFSDYHSELNMSSLELGDSALYFCASSFARLEGRDNEQFFGPGTRLTVL
[5]
  binding result: recognises
[6]
  binding result: no recognition

B4: MAGEA1 TCR 32-41 (TCR, V domains shown)
Valpha: TQLLEQSPQFLSIQEGENLTVYCNSSSVFSSLQWYRQEPGEGPVLLVTVVTGGEVKKLKRLTFQFGDARKDSSLHITAAQPGDTGLYLCAGDESISYGKLTFGQGTILTVHP
Vbeta: DAGVIQSPRHEVTEMGQEVTLRCKPISGHDYLFWYRQTMMRGLELLIYFNNNVPIDDSGMPEDRFSAKMPNASFSTLKIQPSEPRDSAVYFCASSFLGWNEKLFFGSGTQLSVL
[1]
  binding result: recognises
[2]
  binding result: no recognition

B5: MAGEC2 TCR 8-3 (TCR, V domains shown)
Valpha: ILNVEQSPQSLHVQEGDSTNFTCSFPSSNFYALHWYRWETAKSPEALFVMTLNGDEKKKGRISATLNTKEGYSYLYIKGSQPEDSATYLCASGSGGATNKLIFGTGTLLAVQP
Vbeta: GEEVAQTPKHLVRGEGQKAKLYCAPIKGHSYVFWYQQVLKNEFKFLISFQNENVFDETGMPKERFSAKCLPNSPCSLEIQATKLEDSAVYFCASSQSRSLRGTEAFFGQGTRLTVV
[7]
  binding result: recognises
